Data on 2 molecules can be found in PMC8092395, “Development of Stable Chimeric IL-15 for Trans-Presentation by the Antigen Presenting Cells” (Frontiers in Immunology, 2021).

Series [1] concerns the target human chimeric IL-15 (huIL-15 + huIgHG2 chimera; IL-2SP-N72DIL-15CDS-K322AIgHg2) (human). Put plainly: SEC; analytical size-exclusion HPLC, Zorbax Bio Series GF-250 column, PBS mobile phase, 1 ml/min; 20 µl of 1 μg/ml chimeric IL-15; OVA and BSA as standards.
Series [2] has the same target. The series is described as follows: non-reducing SDS-PAGE; purified chimeric IL-15 loaded on SDS-PAGE under non-reducing or reducing conditions, Coomassie stain, densitometry of dimer vs. monomer.
Series [3] concerns the molecule itself. Described as above.

With “human chimeric IL-15 (huIL-15 + huIgHG2 chimera; IL-2SP-N72DIL-15CDS-K322AIgHg2) (Fc fusion)”, the stoichiometry N in series [1] and in series [2] was 2 in each case.

B1: mouse chimeric IL-15 (mIL-15 + mIgHG2a chimera) (Fc fusion)
chain: GIHVFILGCVSVGLPKTEANWIDVRYDLEKIESLIQSIHIDTTLYTDSDFHPSCKVTAMNCFLLELQVILHEYSNMTLNETVRNVLYLANSTLSSNKNVAESGCKECEELEEKTFTEFLQSFIRIVQMFINTSGSAKTTAPSVYPLAPVCGDTTGSSVTLGCLVKGYFPEPVTLTWNSGSLSSGVHTFPAVLQSDLYTLSSSVTVTSSTWPSQSITCNVAHPASSTKVDKKIEPRGPTIKPCPPCKCPAPNLLGGPSVFIFPPKIKDVLMISLSPIVTCVVVDVSEDDPDVQISWFVNNVEVHTAQTQTHREDYNSTLRVVSALPIQHQDWMSGKEFKCKVNNKDLPAPIERTISKPKGSVRAPQVYVLPPPEEEMTKKQVTLTCMVTDFMPEDIYVEWTNNGKTELNYKNTEPVLDSDGSYFMYSKLRVEKKNWVERNSYSCSVVHEGLHNHHTTKSFSRTPGK
Regarding B1, the “stoichiometry N” value in series [3] came out at 2.

For orientation: stoichiometry N means a count of units in the complex or per binding partner.
